This passage reports Kd results from PMC8866485, “Cell surface nucleolin is a novel ADAMTS5 receptor mediating endothelial cell apoptosis” (Cell Death & Disease, 2022).

Assay [1] has as its target T1, FLAG-tagged full-length NCL (NCL-FL 1-710) (UniProt P19338 1-710).
T1 construct: Nucleolin (NCL), residues 1-710, in pCMV-Tag2; the length of 710 residues fits human nucleolin; source: HEK293T, transiently transfected, in whole cell lysate; not shown: FLAG, N-terminal, kept
In words: ELISA; saturation binding: FLAG-NCL-FL from HEK293T whole cell lysate captured on anti-FLAG antibody-coated plate; TS5-p45 titrated, 4 C overnight; anti-His detection. As to conditions: one partner purified.

Assay [2] has as its target T2, Recombinant human NCL (FLAG-tagged, full length) (human, UniProt P19338 1-710).
T2 construct: Nucleolin (NCL), human, full length; also called rhNCL; recombinant NCL; source: bought: OriGene (TP319082)
In words: SPR; Biacore T200, CM5 chip; recombinant NCL captured by amine-coupled anti-NCL antibody; TS5-p45 as analyte, five dilutions, single-cycle kinetics; 25 C; HBST (10 mM HEPES, 150 mM NaCl, 50 uM EDTA, pH 7.4, 0.05% Tween-20); 1:1 model. As to conditions: both partners purified.

T2 sequence (P19338 whole entry): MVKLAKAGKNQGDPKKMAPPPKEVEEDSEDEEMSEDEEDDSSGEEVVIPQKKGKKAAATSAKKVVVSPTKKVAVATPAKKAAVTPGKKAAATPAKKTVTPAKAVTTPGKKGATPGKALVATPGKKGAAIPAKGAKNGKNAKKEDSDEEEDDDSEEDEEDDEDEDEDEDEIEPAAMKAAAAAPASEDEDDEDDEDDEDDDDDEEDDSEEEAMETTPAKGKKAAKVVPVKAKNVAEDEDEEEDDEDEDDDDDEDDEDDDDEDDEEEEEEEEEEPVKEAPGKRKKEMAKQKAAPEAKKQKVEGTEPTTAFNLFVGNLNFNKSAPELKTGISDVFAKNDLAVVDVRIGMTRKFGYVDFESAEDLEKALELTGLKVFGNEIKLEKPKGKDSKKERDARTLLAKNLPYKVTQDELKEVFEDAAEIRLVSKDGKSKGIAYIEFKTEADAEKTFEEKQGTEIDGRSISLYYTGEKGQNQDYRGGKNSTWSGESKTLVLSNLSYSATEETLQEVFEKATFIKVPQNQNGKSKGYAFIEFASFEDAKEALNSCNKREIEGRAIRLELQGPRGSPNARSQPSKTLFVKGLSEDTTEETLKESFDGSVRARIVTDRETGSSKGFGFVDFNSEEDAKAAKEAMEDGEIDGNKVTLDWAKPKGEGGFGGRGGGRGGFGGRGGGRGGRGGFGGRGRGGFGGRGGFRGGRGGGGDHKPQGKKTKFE
T1 sequence (P19338 whole entry, the tested form may be a part): as the sequence (P19338 whole entry) above

B1: Recombinant human TS5-p45 (C-terminal His-tagged, Ser262-Pro622 truncate of ADAMTS5) (domain or fragment, UniProt Q9UNA0 262-622, looked up)
chain: SISRARQVELLLVADASMARLYGRGLQHYLLTLASIANRLYSHASIENHIRLAVVKVVVLGDKDKSLEVSKNAATTLKNFCKWQHQHNQLGDDHEEHYDAAILFTREDLCGHHSCDTLGMADVGTICSPERSCAVIEDDGLHAAFTVAHEIGHLLGLSHDDSKFCEETFGSTEDKRLMSSILTSIDASKPWSKCTSATITEFLDDGHGNCLLDLPRKQILGPEELPGQTYDATQQCNLTFGPEYSVCPGMDVCARLWCAVVRQGQMVCLTKKLPAVEGTPCGKGRICLQGKCVDKTKKKYYSTSSHGNWGSWGSWGQCSRSCGGGVQFAYRHCNNPAPRNNGRYCTGKRAIYRSCSLMPCP
notes: ADAMTS5 (A Disintegrin and Metalloproteinase with Thrombospondin Motifs 5, aggrecanase-2), human, residues Ser262-Pro622; also called 45 kDa truncate of ADAMTS5; source: bought: R&D Systems (2198-AD-01M); not shown: His tag, C-terminal, kept
As to B1, the Kd in assay [1] is approximately 26 nM; in assay [2], approximately 28 nM.
